From article PMC3762189
One block for each substance: values may come before it.

Assays:
[1] = target: branch junction (bovine Arp2/3 complex with mother and daughter actin filaments) (bovine | rabbit) (UniProt P61157); experiment: single-molecule TIRF microscopy; during active branching: 1 µM 33% Oregon-Green actin, 10 nM Arp2/3 complex, 350 nM VCA and 10 nM Alexa568-NtA(1-48)
[2] = target: actin filaments (33% Oregon-Green actin), filament sides (rabbit) (UniProt P68135); experiment: single-molecule TIRF microscopy; preformed branched networks (1 µM 33% Oregon-Green actin, 5 nM Arp2/3 complex, 30 nM VCA, ~6 min), then 1.5 nM Alexa568-cortactin and 0.1 µM actin monomers; koff from lifetimes, KD from the average fraction bound, kon calculated from KD and koff
[3] = target: branch junction (bovine Arp2/3 complex with mother and daughter actin filaments) (bovine | rabbit) (UniProt P61157); experiment: as above
[4] = target: actin filaments (33% Oregon-Green actin), filament sides (rabbit) (UniProt P68135); experiment: single-molecule TIRF microscopy; during active branching: 1 µM 33% Oregon-Green actin, 5 nM Arp2/3 complex, 50 nM VCA and 2 nM Alexa568-cortactin; average lifetimes for each binding class
[5] = target: branch junction (bovine Arp2/3 complex with mother and daughter actin filaments) (bovine | rabbit) (UniProt P61157); experiment: as above
[6] = target: actin filaments (33% Oregon-Green actin), filament sides (rabbit) (UniProt P68135); experiment: single-molecule TIRF microscopy; 2 nM Alexa568-cortactin (1–336) on polymerizing filaments of 1 µM 33% Oregon-Green actin, no Arp2/3 complex; filaments tethered by biotinylated myosin; lifetimes fit with a single exponential
[7] = target: G-actin (rabbit muscle actin monomers) (rabbit) (UniProt P68135); experiment: fluorescence polarisation; competition: anisotropy of 50 nM Rhodamine-VCA with 150 nM G-actin and increasing VCA or VCA mutants; 10 mM Hepes pH 7.0, 50 mM KCl, 1 mM MgCl2, 1 mM EGTA, 1 mM DTT, 0.2 mM ATP, 350 nM Latrunculin B; KD is the mean of at least three fits
[8] = target: branch junction (bovine Arp2/3 complex with mother and daughter actin filaments) (bovine | rabbit) (UniProt P61157)

Sequence of cortactin NtA (residues 1–84) (Q60598 1-84): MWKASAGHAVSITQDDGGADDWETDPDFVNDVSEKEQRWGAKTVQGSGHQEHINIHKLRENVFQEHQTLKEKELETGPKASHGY

Substance: Alexa568-cortactin (residues 1–336) (from UniProt Q60598 1-336) (domain or fragment)
Kd [2]: 5210 nM | koff [2]: 0.063 s⁻¹ | kon [2]: 12100 M⁻¹ s⁻¹ | Kd [3]: 17 nM | average lifetime on branch junctions (preformed filament reactions) [3]: 29.1 s | koff [3]: 0.034 s⁻¹ | kon [3]: 2e+06 M⁻¹ s⁻¹ | lifetime on filament sides during active branching [4]: 8 s | average lifetime at the junction after nucleation [5]: 62 s | average lifetime before nucleation (nascent branch junction) [5]: 6.5 s | average lifetime on existing branch junctions during active branching [5]: 29.5 s | koff [6]: 0.05 s⁻¹

Substance: N-WASP-VCA(E455R) (from UniProt Q95107 1-505) (domain or fragment)
Kd [7]: 630 nM

Substance: N-WASP-VCA(R442A) (from UniProt Q95107 1-505) (domain or fragment)
Kd [7]: 11200 nM

More lines, now with the values ahead:

time bound after daughter filament nucleation (one event shown) [1]: 4.5 s
Substance: Alexa568-NtA(1-48) (from UniProt Q60598 1-48) (domain or fragment)

concentration of NtA (1–84) required for half-maximal synergy with GST-VCA (maximum rate of pyrene-actin polymerization; 2 µM 15% pyrene-actin, 20 nM Arp2/3 complex, 250 nM GST-VCA) [8]: 11 µM
Substance: cortactin NtA (residues 1–84) (from UniProt Q60598 1-84) (domain or fragment)
